Experimental data taken from patent publication US20250281573A1 (GENEROATH, published 2025).

Molecular target: T1, TRAF2 (UniProt Q12933 1-501, limits assumed)
T1 sequence (looked up): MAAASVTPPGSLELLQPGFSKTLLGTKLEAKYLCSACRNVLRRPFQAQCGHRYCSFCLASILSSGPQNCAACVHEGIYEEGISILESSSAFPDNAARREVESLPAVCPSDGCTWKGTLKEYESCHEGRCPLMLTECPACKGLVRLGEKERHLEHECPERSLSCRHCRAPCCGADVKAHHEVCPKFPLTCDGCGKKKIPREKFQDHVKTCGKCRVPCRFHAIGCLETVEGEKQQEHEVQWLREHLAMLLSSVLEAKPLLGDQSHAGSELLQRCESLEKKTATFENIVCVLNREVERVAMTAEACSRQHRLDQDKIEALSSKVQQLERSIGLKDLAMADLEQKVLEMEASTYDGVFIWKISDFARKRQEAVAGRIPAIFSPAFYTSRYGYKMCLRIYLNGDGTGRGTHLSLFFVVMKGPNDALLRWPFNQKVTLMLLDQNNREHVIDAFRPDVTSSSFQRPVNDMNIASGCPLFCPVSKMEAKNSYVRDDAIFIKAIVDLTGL
Assay: TRAF2 immunoprecipitation from transfected HEK293 cells, anti-Myc immunoblot (FIG. 9A)
Protocol: To understand how DX2 compromises the apoptotic activity of TNF-a signaling, we evaluated the ability of DX2 to compete with AIMP2 for the interaction with TRAF2 and to affect NF-kB-dependent transcriptional activity. For the co-immunoprecipitation assay, HEK293 cells were transfected with 0, 1 or 2 μg of Myc-tagged DX2 or AIMP2 expression plasmid (FIG. 9A). The expression of endogenous (Endo) and exogenous (Exo) AIMP2 and DX2 was confirmed by immunoblotting of whole cell lysates (WCL) with anti-AIMP2 antibody. TRAF2 was immunoprecipitated with its specific antibody and AIMP2 or DX2 bound to TRAF2 were detected with anti-Myc antibody.

- binding result: binds
B1: Myc-tagged DX2 (other)
chain: MPMYQVKPYHGGGAPLRVELPTCMYRLPNVHGRSYGPAPGAGHVQDYGALKDIVINANPASPPLSLLVLHRLLCEHFRVLSTVHTHSSVKSVPENLLKCFGEQNKKQPRQDYQLGFTLIWKNVPKTQMKFSIQTMCPIEGEGNIARFLFSLFGQKHNAVNATLIDSWVDIAIFQLKEGSSKEKAAVFRSMNSALGKSPWLAGNELTVADVVLWSVLQQIGGCSVTVPANVQRWMRSCENLAPFNTALKLLK
notes: also called Myc-DX2; not shown: Myc tag
